Test results from patent US20180207294A1, “NON-ALCOHOLIC FATTY LIVER REGULATING FACTOR 14-3-3 PROTEIN” (Korea University Research and Business Foundation, priority 2015, published 2018).

How the values were obtained:
SREBP-1c protein = SREBP-1c protein expression by western blotting, HepG2 cells; type: cell-based; settings: 14-3-3 overexpression, 200 μM oleic acid 72 hours, FIG. 7D
Protocol: In addition, HepG2 cells were seeded in a 6-well plate at a density of 5×10^5 cells per each well, and then transfected with HA-14-3-3β DNA (1 μg) or HA-14-3-3γ DNA (1 μg) using an E-fection plus reagent (Lugen). A ratio of DNA to the E-fection plus reagent was 1:2, and this method was performed according to a manufacturer's manual. After transfection, the cells were treated with 200 μM of oleic acid (OA) for 72 hours, washed with ice-cold PBS, and lysed with 80 μl/well of a lysis buffer (150 mM NaCl, 1 mM EDTA, 1% Nonidet P-40, 5% glycerol, 25 mM tris-HCl, pH 7.5, protease inhibitor added), the lysed cells were centrifuged at 10,000×g and 4° C. for 10 minutes to extract proteins, and 30 μg of the proteins was separated on a 10% SDS-PAGE gel and identified using each of the antibodies (HA, SREBP-1c: Santa Cruz) by western blotting, and all antibodies were used in a ratio of 1:3000. To verify whether such regulation of mRNA expression of the target genes of PPARγ2 is the same as in the expression of a protein thereof, an expression amount of the SREBP-1c protein was checked by western blotting. As a result of the experiment, it was confirmed that the expression of the SREBP-1c protein was increased by the overexpression of 14-3-3β and reduced by the overexpression of 14-3-3γ (see FIG. 7D).

PPARγ2 = biological target: T1, PPARγ2 (Homo sapiens, UniProt P37231); experiment: aP2 promoter luciferase assay of PPARγ2 transcriptional activity in HEK-293T cells; type: cell-based
T1 construct: host or cells: HEK-293T
T1 sequence (P37231 1-505): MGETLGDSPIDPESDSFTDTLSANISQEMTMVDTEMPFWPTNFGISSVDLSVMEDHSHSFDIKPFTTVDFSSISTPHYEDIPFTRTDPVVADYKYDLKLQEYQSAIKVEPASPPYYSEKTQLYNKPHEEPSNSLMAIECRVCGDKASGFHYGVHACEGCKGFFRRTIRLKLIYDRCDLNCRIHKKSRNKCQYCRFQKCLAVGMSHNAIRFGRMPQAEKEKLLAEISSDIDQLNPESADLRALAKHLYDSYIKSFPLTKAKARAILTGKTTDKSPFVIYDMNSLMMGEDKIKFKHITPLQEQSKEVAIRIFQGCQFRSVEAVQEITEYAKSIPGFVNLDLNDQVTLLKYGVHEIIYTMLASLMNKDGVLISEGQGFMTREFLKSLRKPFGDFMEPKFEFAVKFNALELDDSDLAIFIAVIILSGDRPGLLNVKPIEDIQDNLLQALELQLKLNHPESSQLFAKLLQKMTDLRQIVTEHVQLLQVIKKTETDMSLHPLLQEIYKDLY
Protocol: The transcriptional activity of PPARγ2 plays a vital role in expression of liver diseases-associated proteins. Thus, the transcriptional activity of PPARγ2 was measured using an aP2 promoter regulated by PPARγ2, and the role of 7 types of 14-3-3 proteins was investigated.
For this, HEK-293T cells were seeded in a 12-well plate at a density of 1×10^5 cells per each well, and then transfected with an aP2 promoter construct (0.5 μg) and 14-3-3 isoform proteins (α, β, γ, ε, ζ, π, θ) (0.5 μg) or si-14-3-3β and si-14-3-3γ siRNA (5 nM and 10 nM, Santa Cruz) using an E-fection plus reagent (Lugen). A ratio of DNA to the E-fection plus reagent was 1:2, and this method was performed according to a manufacturer's manual. After transfection, the corresponding cells were treated with 10 μM of pioglitazone (Pio, Santa Cruz) for 24 hours, washed with ice-cold PBS, and lysed using 80 μl/well of a reporter lysis buffer (Promega, Madison, Wis.), and the lysed cells were centrifuged at 10,000×g and 4° C. for 10 minutes to collect a supernatant, and luciferase activity was measured. As an instrument, Luminometer 20/20n (Turner Biosystems, Sunnyvale, Calif.) was used. For normalization, the cells were cotransfected with pSV40-β-galactosidase. For the collected supernatant, β-galactosidase activity was measured and the luciferase activity was revised, and the obtained values were plotted. At this time, a β-galactosidase enzyme analysis system (Promega, Madison, Wis.) was used, and analysis was performed using a DU530 spectrophotometer (Beckman Instruments, Palo Alto, Calif.).

PPAR-RXR complex = biological target: T2, PPAR-RXR complex (Homo sapiens, UniProt P37231); experiment: Formation of PPAR-RXR complex under 14-3-3 overexpression; type: binding; settings: overexpression of 14-3-3β and 14-3-3γ; FIG. 8C
T2 sequence (P37231 1-505): T1 sequence (P37231 1-505)
T2 sequence (P19793 1-462 partner): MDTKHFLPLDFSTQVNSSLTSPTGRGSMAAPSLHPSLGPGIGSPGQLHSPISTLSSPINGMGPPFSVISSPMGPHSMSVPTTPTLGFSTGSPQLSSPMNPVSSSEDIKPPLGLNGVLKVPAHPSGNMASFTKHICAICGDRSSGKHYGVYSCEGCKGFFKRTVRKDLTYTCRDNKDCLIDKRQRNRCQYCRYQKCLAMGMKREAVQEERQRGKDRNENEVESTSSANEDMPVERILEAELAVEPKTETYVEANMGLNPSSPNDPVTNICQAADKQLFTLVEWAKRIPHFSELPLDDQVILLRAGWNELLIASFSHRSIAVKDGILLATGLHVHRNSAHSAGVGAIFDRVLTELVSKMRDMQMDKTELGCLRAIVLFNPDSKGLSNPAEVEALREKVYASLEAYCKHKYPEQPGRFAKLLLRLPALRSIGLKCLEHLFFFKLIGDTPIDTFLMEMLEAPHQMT

[1] = 14-3-3β / 14-3-3γ overexpressed according to concentration, FIG. 1B, 1C
[2] = overexpression of 14-3-3 isoform proteins (0.5 μg), 10 μM pioglitazone 24 hours, FIG. 1A

Substance	expression of the SREBP-1c protein (SREBP-1c protein)	transcriptional activity of PPARγ2 (activity of the aP2 promoter) (PPARγ2; [1])	transcriptional activity of PPARγ2 (activity of the aP2 promoter) (PPARγ2; [2])	formation of the PPAR-RXR complex (PPAR-RXR complex)
14-3-3β: 14-3-3 isoform protein, overexpressed by DNA transfection; regulating factor that increases transcriptional activity of PPARγ2	increased	increased the transcriptional activity of PPARγ2 in a concentration-dependent manner	increased the transcriptional activity of PPARγ2	did not affect the formation of the PPAR-RXR complex
14-3-3γ: 14-3-3 isoform protein, overexpressed by DNA transfection; regulating factor that decreases transcriptional activity of PPARγ2	reduced	reduced the transcriptional activity of PPARγ2 in a concentration-dependent manner	decreased the transcriptional activity of PPARγ2	did not affect the formation of the PPAR-RXR complex
